Reference: patent US20240018237A1 (SICHUAN KELUN BIOTECH BIOPHARMACEUTICAL, published 2024)

Key:
[1] = biological target: human ROR1 (full-length, on the cell surface) (human) (UniProt Q01973); assay: flow cytometry, HT-29 cells (Table 5-1B)
[2] = biological target: human ROR1 (full-length, on the cell surface) (human) (UniProt Q01973); assay: flow cytometry, Ba/F3-ROR1 cells; average of two measurements
[3] = biological target: human ROR1 ECD protein (human) (UniProt Q01973); assay: BLI (Octet), antibody on AHC sensor, ROR1 ECD in solution; average of three determinations
Sequence of human ROR1 ECD protein (human) (Q01973 30-406): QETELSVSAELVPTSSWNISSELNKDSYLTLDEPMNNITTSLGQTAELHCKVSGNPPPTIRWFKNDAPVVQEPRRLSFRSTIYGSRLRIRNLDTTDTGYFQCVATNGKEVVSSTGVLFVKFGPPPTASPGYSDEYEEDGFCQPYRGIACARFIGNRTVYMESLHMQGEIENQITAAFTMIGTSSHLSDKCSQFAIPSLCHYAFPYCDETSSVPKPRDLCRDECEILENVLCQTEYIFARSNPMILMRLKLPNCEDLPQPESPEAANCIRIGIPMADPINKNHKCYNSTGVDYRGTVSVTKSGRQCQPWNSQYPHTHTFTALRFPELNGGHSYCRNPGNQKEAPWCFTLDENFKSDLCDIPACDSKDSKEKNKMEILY

[4] = biological target: human ROR1 (full-length, on the cell surface) (human) (UniProt Q01973); assay: flow cytometry, HT-29 cells (Table 5-3)
[5] = biological target: human ROR1 (full-length, on the cell surface) (human) (UniProt Q01973); assay: flow cytometry, Jeko-1 cells (Table 5-1A)
[6] = biological target: human ROR1 (full-length, on the cell surface) (human) (UniProt Q01973); assay: flow cytometry, Jeko-1 cells (Table 5-2)
[7] = biological target: human ROR1 (full-length, on the cell surface) (human) (UniProt Q01973); assay: flow cytometry on Ba/F3-ROR1 cells, MFI against antibody concentration
[8] = biological target: human ROR1 (full-length, on the cell surface) (human) (UniProt Q01973); assay: flow cytometry, HT-29 cells (Table 5-2)
[9] = biological target: human ROR1 (full-length, on the cell surface) (human) (UniProt Q01973); assay: flow cytometry, Jeko-1 cells (Table 5-3)
[10] = biological target: human ROR1 (full-length, on the cell surface) (human) (UniProt Q01973); assay: flow cytometry on A549 cells, MFI against antibody concentration
[11] = biological target: human ROR1 (full-length, on the cell surface) (human) (UniProt Q01973); assay: cell-based or functional assay
[12] = biological target: human ROR1 (full-length, on the cell surface) (human) (UniProt Q01973); assay: flow cytometry, HT-29 cells; average of two measurements
[13] = biological target: human ROR1 (full-length, on the cell surface) (human) (UniProt Q01973); assay: flow cytometry, A549 cells; average of two measurements
[14] = biological target: human ROR1 (full-length, on the cell surface) (human) (UniProt Q01973); assay: flow cytometry, A549 cells (Table 5-2)
[15] = biological target: human ROR1 (full-length, on the cell surface) (human) (UniProt Q01973); assay: flow cytometry, A549 cells (Table 5-1B)
[16] = biological target: human ROR1 (full-length, on the cell surface) (human) (UniProt Q01973); assay: flow cytometry, Jeko-1 cells; average of two measurements
[17] = biological target: human ROR1 (full-length, on the cell surface) (human) (UniProt Q01973); assay: flow cytometry on Ba/F3-ROR1 cells, MFI against antibody concentration; remark: listed apart in the source
[18] = biological target: human ROR1 ECD protein (human) (UniProt Q01973); assay: BLI (Octet), antibody on AHC sensor, ROR1 ECD in solution; average of two measurements
[19] = biological target: human ROR1 (full-length, on the cell surface) (human) (UniProt Q01973); assay: flow cytometry, A549 cells (Table 5-1A)
[20] = biological target: human ROR1 (full-length, on the cell surface) (human) (UniProt Q01973); assay: flow cytometry, Ba/F3-ROR1 cells (Table 5-1B)
[21] = biological target: human ROR1 (full-length, on the cell surface) (human) (UniProt Q01973); assay: flow cytometry, HT-29 cells (Table 5-1A)
[22] = biological target: human ROR1 (full-length, on the cell surface) (human) (UniProt Q01973); assay: flow cytometry, A549 cells (Table 5-3)
[23] = biological target: human ROR1 (full-length, on the cell surface) (human) (UniProt Q01973); assay: flow cytometry, Ba/F3-ROR1 cells (Table 5-1A)
[24] = biological target: human ROR1 (full-length, on the cell surface) (human) (UniProt Q01973); assay: flow cytometry, Jeko-1 cells (Table 5-1B)
[25] = biological target: human ROR1 (full-length, on the cell surface) (human) (UniProt Q01973); assay: flow cytometry, Ba/F3-ROR1 cells (Table 5-3)
[26] = biological target: human ROR1 (full-length, on the cell surface) (human) (UniProt Q01973); assay: flow cytometry, Ba/F3-ROR1 cells (Table 5-2)

Sequence of human ROR1 (full-length, on the cell surface) (human) (Q01973 30-937): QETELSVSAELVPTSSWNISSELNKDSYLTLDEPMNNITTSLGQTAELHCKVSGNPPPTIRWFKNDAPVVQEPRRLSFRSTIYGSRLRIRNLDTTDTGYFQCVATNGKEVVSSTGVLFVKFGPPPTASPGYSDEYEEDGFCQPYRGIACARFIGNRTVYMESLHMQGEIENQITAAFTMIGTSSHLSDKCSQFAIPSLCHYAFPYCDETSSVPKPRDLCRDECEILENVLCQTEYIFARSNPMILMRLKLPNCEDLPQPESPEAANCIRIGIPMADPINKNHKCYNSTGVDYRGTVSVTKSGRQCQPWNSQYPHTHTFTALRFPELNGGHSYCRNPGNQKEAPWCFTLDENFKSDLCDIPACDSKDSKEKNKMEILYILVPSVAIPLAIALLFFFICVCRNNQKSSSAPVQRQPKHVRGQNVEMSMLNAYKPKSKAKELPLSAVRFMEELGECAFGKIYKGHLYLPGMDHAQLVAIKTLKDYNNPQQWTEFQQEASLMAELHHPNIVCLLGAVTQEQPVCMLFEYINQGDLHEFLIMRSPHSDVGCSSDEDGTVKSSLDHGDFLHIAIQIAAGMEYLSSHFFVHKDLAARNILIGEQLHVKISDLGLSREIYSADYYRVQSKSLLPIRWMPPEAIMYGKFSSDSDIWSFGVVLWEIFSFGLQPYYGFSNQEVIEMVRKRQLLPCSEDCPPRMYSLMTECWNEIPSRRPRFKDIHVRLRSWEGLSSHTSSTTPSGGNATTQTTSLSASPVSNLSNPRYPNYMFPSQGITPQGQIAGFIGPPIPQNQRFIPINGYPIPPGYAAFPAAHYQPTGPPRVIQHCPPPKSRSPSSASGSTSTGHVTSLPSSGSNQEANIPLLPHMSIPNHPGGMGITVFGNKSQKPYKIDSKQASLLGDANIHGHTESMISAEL

B1: anti-human ROR1 antibody UC961 (antibody, from another filing, V domains shown)
VH: QVQLQESGPGLVKPSQTLSLTCTVSGYAFTAYNIHWVRQAPGQGLEWMGSFDPYDGGSSYNQKFKDRLTISKDTSKNQVVLTMTNMDPVDTATYYCARGWYYFDYWGHGTLVTVSS
VL: DIVMTQTPLSLPVTPGEPASISCRASKSISKYLAWYQQKPGQAPRLLIYSGSTLQSGIPPRFSGSGYGTDFTLTINNIESEDAAYYFCQQHDESPYTFGEGTKVEIK
[1]
  EC50: 200 pM
[2]
  EC50: 440 pM
[3]
  Kd: 8730 pM
  koff: 0.0112 s⁻¹
  kon: 1.26e+06 M⁻¹ s⁻¹
[4]
  EC50: 370 pM
[5]
  EC50: 220 pM
[6]
  EC50: 140 pM
[7]
  EC50 (read off the curve): 0.05 µg/mL
[8]
  EC50: 210 pM
[9]
  EC50: 60 pM
[10]
  EC50 (read off the curve): 0.01 µg/mL
[11]
  EC50 of ADCC killing of Ba/F3-ROR1 cells by NK92MI-mCD16a-hFceRI cells: 330 pM
[12]
  EC50: 267 pM
[13]
  EC50: 277 pM
[14]
  EC50: 460 pM
[15]
  EC50: 160 pM
[16]
  EC50: 447 pM
[17]
  EC50 (read off the curve): 0.07 µg/mL
[18]
  Kd: 15800 pM
  koff: 0.0137 s⁻¹
  kon: 981000 M⁻¹ s⁻¹
[19]
  EC50: 410 pM
[20]
  EC50: 300 pM
[21]
  EC50: 120 pM
[22]
  EC50: 210 pM
[23]
  EC50: 620 pM
[24]
  EC50: 360 pM
[25]
  EC50: 1070 pM
[26]
  EC50: 310 pM
